target: T1, human C-C motif chemokine receptor 8 (CCR8) (human, UniProt P51685 1-355); experiment: FACS (MFI-PE) on CHO-K1 hCCR8 cells, bars at five doses
T1 construct: whole, on cells; also called human CCR8; hCCR8
Procedure: PE Goat anti-Human IgG Fc Secondary Antibody (eBioscience™, Invitrogen) was added to each well and incubated at 4° C. for 30 mins. Samples were washed twice with FACS buffer. The mean florescence intensity (MFI) of PE was evaluated by MACSQuant Analyzer 16.

T1 sequence (P51685 whole entry): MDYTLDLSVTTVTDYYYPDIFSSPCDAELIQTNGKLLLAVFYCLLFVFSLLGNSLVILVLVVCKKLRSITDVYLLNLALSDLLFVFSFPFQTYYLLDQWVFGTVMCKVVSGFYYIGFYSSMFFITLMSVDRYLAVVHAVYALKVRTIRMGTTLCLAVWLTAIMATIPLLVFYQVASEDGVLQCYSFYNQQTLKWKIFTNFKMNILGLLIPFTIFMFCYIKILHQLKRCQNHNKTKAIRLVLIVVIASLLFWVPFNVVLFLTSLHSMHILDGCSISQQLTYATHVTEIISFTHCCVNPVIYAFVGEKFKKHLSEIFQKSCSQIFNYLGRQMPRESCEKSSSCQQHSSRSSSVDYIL

Binder	binding result
Hu195H8D10-13 (antibody, V domains shown, humanized) VH: EVQLVESGGGLVQPGGSLRLSCAASGFNFNTYVMNWVRQAPGKGLEWVARIRTKSNNYATYYADSVKDRFTISRDDSESSLYLQMNSLKTEDTAMYYCVSGTITRLGGGLDYWGQGTLVTVSS VL: DIVMTQSPLSLPVTPGEPASISCRSSKRLLHSNGNTYLYWYLQKPGQSPQLLIYRMSNLASGVPDRFSGSGSGTDFTLKISRVEAEDVGVYYCMQHLEYPFTFGGGTKLEIK	binds
Hu200C9B9-8 (antibody, V domains shown, humanized) VH: EVQLVESGGGLVQPGGSLRLSCAASGFSFNTYVMNWVRQAPGKGLEWVARIRTKSNNYATFYVDSVKDRFTISRDDSKNSLYLQMNSLKTEDTAVYYCVSGTITRLGAGLDYWGQGTLVTVSS VL: DIVMTQSPLSLPVTPGEPASISCRSSKSLLHSNGNTYLYWFLQKPGQSPQLLIYRMSNLASGVPDRFSGSGSGTAFTLKISRVEAEDVGVYYCMQHLEYPFTFGGGTKLEIK	binds
Hu200C9B9-11 (antibody, V domains shown, humanized) VH: EVQLVESGGGLVQPGGSLRLSCAASGFSFNTYVMNWVRQAPGKGLNWVARIRTKSNNYATFYVDSVKDRFTISRDDSKNSLYLQMNSLKTEDTAVYYCVSGTITRLGAGLDYWGQGTLVTVSS VL: DIVMTQSPLSLPVTPGEPASISCRSSKSLLHSNGNTYLYWYLQKPGQSPQLLIYRMSNLASGVPDRFSGSGSGTAFTLKISRVEAEDVGVYYCMQHLEYPFTFGGGTKLEIK	binds
Hu195H8D10-14 (antibody, V domains shown, humanized) VH: EVQLVESGGGLVQPGGSLRLSCAASGFNFNTYVMNWVRQAPGKGLEWVARIRTKSNNYATYYADSVKDRFTISRDDSESSLYLQMNSLKTEDTAMYYCVSGTITRLGGGLDYWGQGTLVTVSS VL: DIVMTQSPLSLPVTPGEPASISCRSSKRLLHSNGNTYLYWFLQKPGQSPQLLIYRMSNLASGVPDRFSGSGSGTDFTLKISRVEAEDVGVYYCMQHLEYPFTFGGGTKLEIK	binds
Hu200C9B9-2 (antibody, V domains shown, humanized) VH: EVQLVESGGGLVQPGGSLRLSCAASGFSFNTYVMNWVRQAPGKGLEWVGRIRTKSNNYATFYVDSVKDRFTISRDDSKNSLYLQMNSLKTEDTAVYYCARGTITRLGAGLDYWGQGTLVTVSS VL: DIVMTQSPLSLPVTPGEPASISCRSSKSLLHSNGNTYLYWFLQKPGQSPQLLIYRMSNLASGVPDRFSGSGSGTDFTLKISRVEAEDVGVYYCMQHLEYPFTFGGGTKLEIK	binds
Hu200C9B9-10 (antibody, V domains shown, humanized) VH: EVQLVESGGGLVQPGGSLRLSCAASGFSFNTYVMNWVRQAPGKGLNWVARIRTKSNNYATFYVDSVKDRFTISRDDSKNSLYLQMNSLKTEDTAVYYCVSGTITRLGAGLDYWGQGTLVTVSS VL: DIVMTQSPLSLPVTPGEPASISCRSSKSLLHSNGNTYLYWFLQKPGQSPQLLIYRMSNLASGVPDRFSGSGSGTDFTLKISRVEAEDVGVYYCMQHLEYPFTFGGGTKLEIK	binds
Hu200C9B9-5 (antibody, V domains shown, humanized) VH: EVQLVESGGGLVQPGGSLRLSCAASGFSFNTYVMNWVRQAPGKGLEWVARIRTKSNNYATFYVDSVKDRFTISRDDSKNSLYLQMNSLKTEDTAVYYCVSGTITRLGAGLDYWGQGTLVTVSS VL: DIVMTQSPLSLPVTPGEPASISCRSSKSLLHSNGNTYLYWYLQKPGQSPQLLIYRMSNLASGVPDRFSGSGSGTDFTLKISRVEAEDVGVYYCMQHLEYPFTFGGGTKLEIK	binds
Hu200C9B9-1 (antibody, V domains shown, humanized) VH: EVQLVESGGGLVQPGGSLRLSCAASGFSFNTYVMNWVRQAPGKGLEWVGRIRTKSNNYATFYVDSVKDRFTISRDDSKNSLYLQMNSLKTEDTAVYYCARGTITRLGAGLDYWGQGTLVTVSS VL: DIVMTQSPLSLPVTPGEPASISCRSSKSLLHSNGNTYLYWYLQKPGQSPQLLIYRMSNLASGVPDRFSGSGSGTDFTLKISRVEAEDVGVYYCMQHLEYPFTFGGGTKLEIK	binds

Source: patent US20250368744A1 (CONCEPT TO MEDICINE BIOTECH, published 2025)
